Test results: paper PMC10786891, “Massively parallel profiling of RNA-targeting CRISPR-Cas13d”
Where a chain is given by its changes, count along the chain named. In names and notes the source's numbering stands.

T1: EsCas13d, nuclease-dead (Eubacterium siraeum, UniProt B0MS50, R295A;H300A;R849A;H854A)
T1 sequence: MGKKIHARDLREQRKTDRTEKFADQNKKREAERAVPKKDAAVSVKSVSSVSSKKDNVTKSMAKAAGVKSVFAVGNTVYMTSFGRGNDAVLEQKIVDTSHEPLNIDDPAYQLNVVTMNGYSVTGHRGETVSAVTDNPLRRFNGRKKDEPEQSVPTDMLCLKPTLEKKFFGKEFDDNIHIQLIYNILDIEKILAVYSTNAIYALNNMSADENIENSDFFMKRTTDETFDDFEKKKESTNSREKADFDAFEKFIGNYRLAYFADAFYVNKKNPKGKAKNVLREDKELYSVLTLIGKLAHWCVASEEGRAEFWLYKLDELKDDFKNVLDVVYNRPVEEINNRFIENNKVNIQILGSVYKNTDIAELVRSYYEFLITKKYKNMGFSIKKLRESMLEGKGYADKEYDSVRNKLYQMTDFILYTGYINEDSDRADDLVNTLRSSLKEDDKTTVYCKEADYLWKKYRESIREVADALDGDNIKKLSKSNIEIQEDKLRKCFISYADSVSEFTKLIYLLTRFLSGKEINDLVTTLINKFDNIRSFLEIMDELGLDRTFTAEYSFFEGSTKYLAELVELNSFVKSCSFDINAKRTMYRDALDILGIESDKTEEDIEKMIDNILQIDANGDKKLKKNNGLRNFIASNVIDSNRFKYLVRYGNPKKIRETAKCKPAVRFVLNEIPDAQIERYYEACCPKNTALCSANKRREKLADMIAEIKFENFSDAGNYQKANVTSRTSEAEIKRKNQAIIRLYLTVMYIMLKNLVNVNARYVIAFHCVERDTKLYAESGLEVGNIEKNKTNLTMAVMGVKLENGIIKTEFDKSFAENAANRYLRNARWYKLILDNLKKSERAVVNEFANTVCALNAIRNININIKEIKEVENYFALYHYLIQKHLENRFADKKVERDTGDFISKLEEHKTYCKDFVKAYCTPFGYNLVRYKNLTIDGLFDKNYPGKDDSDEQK

B1: target 1 MT 5'PFS GGA 3'PFS ACU (mixed)
RNA 1: CACCCGUGCAAAAAUGCAGGGGUCUAAAACUGAGCGGAUAACCUCUCUAUGG
RNA 2: GGGAAUGGAUCCACAUCUACGAAUUCGGACCAUAGAGAGGUUAUCCGCUCAACUAGAUCGGAAGAGCACACGU
B2: target 1 MT 5'PFS UGU 3'PFS UCU (mixed)
RNA 1: B1 RNA 1
RNA 2: B1 RNA 2 with G27U, A29U, A52U
B3: target 1 MT 5'PFS GGA 3'PFS ACC (mixed)
RNA 1: B1 RNA 1
RNA 2: B1 RNA 2 with U54C
B4: target 1 MT 5'PFS GGA 3'PFS ACA (mixed)
RNA 1: B1 RNA 1
RNA 2: B1 RNA 2 with U54A
B5: target 1 insU 3' of 17,insU 3' of 12 (mixed)
RNA 1: B1 RNA 1
RNA 2: GGGAAUGGAUCCACAUCUACGAAUUCGUACCAUAGUAGAGGUUUAUCCGCUCACCGAGAUCGGAAGAGCACACGU
B6: target 1 MT 5'PFS GGA 3'PFS ACG (mixed)
RNA 1: B1 RNA 1
RNA 2: B1 RNA 2 with U54G
B7: target 1 MT 5'PFS UGU 3'PFS UCA (mixed)
RNA 1: B1 RNA 1
RNA 2: B1 RNA 2 with G27U, A29U, A52U, U54A
B8: target 1 MT 5'PFS UGU 3'PFS UCC (mixed)
RNA 1: B1 RNA 1
RNA 2: B1 RNA 2 with G27U, A29U, A52U, U54C
B9: target 1 MT 5'PFS UGU 3'PFS UCG (mixed)
RNA 1: B1 RNA 1
RNA 2: B1 RNA 2 with G27U, A29U, A52U, U54G
B10: target 1 MT 5'PFS CUC 3'PFS CCU (mixed)
RNA 1: B1 RNA 1
RNA 2: B1 RNA 2 with G27C, G28U, A29C, A52C
B11: target 1 MT 5'PFS ACU 3'PFS CUU (mixed)
RNA 1: B1 RNA 1
RNA 2: B1 RNA 2 with G27A, G28C, A29U, A52C, C53U
B12: target 1 MT 5'PFS ACU 3'PFS CUA (mixed)
RNA 1: B1 RNA 1
RNA 2: B1 RNA 2 with G27A, G28C, A29U, A52C, C53U, U54A
B13: target 1 MT 5'PFS UCC 3'PFS AUG (mixed)
RNA 1: B1 RNA 1
RNA 2: B1 RNA 2 with G27U, G28C, A29C, C53U, U54G
B14: target 1 MT 5'PFS UCC 3'PFS AUA (mixed)
RNA 1: B1 RNA 1
RNA 2: B1 RNA 2 with G27U, G28C, A29C, C53U, U54A
B15: target 1 MT 5'PFS UCC 3'PFS AUC (mixed)
RNA 1: B1 RNA 1
RNA 2: B1 RNA 2 with G27U, G28C, A29C, C53U, U54C
B16: target 1 insC 3' of 11,insA 3' of 11 (mixed)
RNA 1: B1 RNA 1
RNA 2: B5 RNA 2 with U36A, A37G, G38A, A39G, G41U, U42C, U43A
B17: target 1 MT 5'PFS CUU 3'PFS AUA (mixed)
RNA 1: B1 RNA 1
RNA 2: B1 RNA 2 with G27C, G28U, A29U, C53U, U54A
B18: target 1 MT 5'PFS CAA 3'PFS UUA (mixed)
RNA 1: B1 RNA 1
RNA 2: B1 RNA 2 with G27C, G28A, A52U, C53U, U54A
B19: target 1 MT 5'PFS GGA 3'PFS CAC (mixed)
RNA 1: B1 RNA 1
RNA 2: B1 RNA 2 with A52C, C53A, U54C
B20: target 1 MT 5'PFS UUG 3'PFS UAG (mixed)
RNA 1: B1 RNA 1
RNA 2: B1 RNA 2 with G27U, G28U, A29G, A52U, C53A, U54G
B21: target 1 MT 5'PFS GGA 3'PFS CAA (mixed)
RNA 1: B1 RNA 1
RNA 2: B1 RNA 2 with A52C, C53A, U54A
B22: target 1 MT 5'PFS GGA 3'PFS CAG (mixed)
RNA 1: B1 RNA 1
RNA 2: B1 RNA 2 with A52C, C53A, U54G
B23: target 1 MT 5'PFS UUG 3'PFS UAC (mixed)
RNA 1: B1 RNA 1
RNA 2: B1 RNA 2 with G27U, G28U, A29G, A52U, C53A, U54C
B24: target 1 MT 5'PFS CAU 3'PFS AUA (mixed)
RNA 1: B1 RNA 1
RNA 2: B1 RNA 2 with G27C, G28A, A29U, C53U, U54A
B25: target 1 MT 5'PFS CUC 3'PFS UUG (mixed)
RNA 1: B1 RNA 1
RNA 2: B1 RNA 2 with G27C, G28U, A29C, A52U, C53U, U54G
B26: target 1 MT 5'PFS UUG 3'PFS UAU (mixed)
RNA 1: B1 RNA 1
RNA 2: B1 RNA 2 with G27U, G28U, A29G, A52U, C53A
B27: target 1 U19G,A20C (mixed)
RNA 1: B1 RNA 1
RNA 2: B1 RNA 2 with G28U, A32C, U33G, A52C, U54G
B28: target 1 MT 5'PFS CUC 3'PFS UUC (mixed)
RNA 1: B1 RNA 1
RNA 2: B1 RNA 2 with G27C, G28U, A29C, A52U, C53U, U54C
B29: target 1 MT 5'PFS CUC 3'PFS UUA (mixed)
RNA 1: B1 RNA 1
RNA 2: B1 RNA 2 with G27C, G28U, A29C, A52U, C53U, U54A
B30: target 1 MT 5'PFS UUA 3'PFS AAC (mixed)
RNA 1: B1 RNA 1
RNA 2: B1 RNA 2 with G27U, G28U, C53A, U54C
B31: target 1 MT 5'PFS UUA 3'PFS AAA (mixed)
RNA 1: B1 RNA 1
RNA 2: B1 RNA 2 with G27U, G28U, C53A, U54A
B32: target 1 MT 5'PFS CCG 3'PFS UGC (mixed)
RNA 1: B1 RNA 1
RNA 2: B1 RNA 2 with G27C, G28C, A29G, A52U, C53G, U54C
B33: target 1 MT 5'PFS UCG 3'PFS ACU (mixed)
RNA 1: B1 RNA 1
RNA 2: B1 RNA 2 with G27U, G28C, A29G
B34: target 1 MT 5'PFS CCG 3'PFS UGU (mixed)
RNA 1: B1 RNA 1
RNA 2: B1 RNA 2 with G27C, G28C, A29G, A52U, C53G

What follows are binders tested against T1, EsCas13d, nuclease-dead (assay: crRNA (strand 1, pre-loaded); Mg2+; 40 mM Tris-HCl pH 7.5, 150 mM NaCl, 6 mM MgCl2, 1 mM DTT, 0.1% Tween-20, 0.2 mg/ml BSA; 25 C; 10 min per concentration, then washed). Details: tags: His6-TwinStrep-SUMO cleaved; N-terminal SNAP kept (SNAP-Surface 488); label: 3' end held by stalled T7 RNA polymerase.

| Binder | Kd [nM] |
| --- | --- |
| B1 | 15.8 ± 2.95 |
| B2 | 28.5 ± 6.5 |
| B3 | 27.3 ± 7.15 |
| B4 | 27 ± 5 |
| B5 | 16.4 ± 3.2 |
| B6 | 20.5 ± 4 |
| B7 | 47.5 ± 13 |
| B8 | 39 ± 10.5 |
| B9 | 61 ± 20.5 |
| B10 | ~40 |
| B11 | 38 ± 13 |
| B12 | ~34.5 |
| B13 | 39 ± 17 |
| B14 | 13.7 ± 5.05 |
| B15 | 43.5 ± 17.5 |
| B16 | 21.4 ± 1 |
| B17 | ~50.5 |

| Binder | Kd [nM] |
| --- | --- |
| B18 | 7.25 ± 2 |
| B19 | 35.5 ± 15 |
| B20 | 47.5 ± 10.5 |
| B21 | 52 ± 16 |
| B22 | 24.5 ± 5 |
| B23 | 42.5 ± 13.5 |
| B24 | ~70 |
| B25 | ~105 |
| B26 | 16.9 ± 2.45 |
| B27 | 80 ± 40 |
| B28 | ~55 |
| B29 | ~43.5 |
| B30 | 34 ± 10.5 |
| B31 | ~85 |
| B32 | 2.6 ± 0.75 |
| B33 | 28 ± 10 |
| B34 | 9.95 ± 2.7 |
